Experimental data taken from patent US20250179208A1 (ZONHON BIOPHARMA INSTITUTE, published 2025).
Like-named read-outs stand apart in the source and are kept apart here.

How the values were obtained:
[1] = target: T1, CD26 on CD26 positive human tumor cells (human, UniProt P27487 1-766); test: cell-based or functional assay
[2] = target: T1, CD26 on CD26 positive human tumor cells; test: cell-based or functional assay; remark: listed apart in the source
[3] = target: T1, CD26 on CD26 positive human tumor cells; test: cell-based or functional assay; remark: listed apart in the source
[4] = target: T2, CD26 protein (recombinant human CD26) (human, UniProt P27487 29-766, limits assumed); test: BLI (Octet), biotinylated CD26 on SA sensor, antibody 31.3-500 nM
T2 construct: Amine-coupled, biotinylated or HRP-labeled according to the assay; also called DPP4; rCD26
Procedure: CD26 protein was biotinylated with EZ-link NHS-PEG12-Biotin. Biotinylated CD26 protein was immobilized to SA biosensor. Equilibrated in 1×Kinetics solution. The CD26 immobilized to SA biosensor was combined with the antibody solution to be detected. The concentration gradients of the antibody solution were 31.3 nM, 62.5 nM, 125 nM, 250 nM, and 500 nM. The biosensor was dissociated in 1×Kinetics solution. Fortebio Data Analysis 8.0 software was used for data analysis and affinity constant values were calculated.

CD3 protein = target: T3, CD3 protein; test: BLI (Octet), biotinylated CD3 on SA sensor, antibody 200-1600 nM
T3 chain 1: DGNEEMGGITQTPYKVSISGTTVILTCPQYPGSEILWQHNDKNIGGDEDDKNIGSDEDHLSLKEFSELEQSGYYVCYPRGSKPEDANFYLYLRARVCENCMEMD
T3 chain 2: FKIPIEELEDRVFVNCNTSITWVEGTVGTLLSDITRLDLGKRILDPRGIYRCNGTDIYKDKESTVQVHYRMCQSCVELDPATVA
Procedure: CD3 protein was biotinylated with EZ-link NHS-PEG12-Biotin. Biotinylated CD3 protein was immobilized to SA biosensor. Equilibrated in 1×Kinetics solution. The CD3 immobilized to SA biosensor was combined with the humanized bispecific antibody solution to be detected. The concentration gradient of humanized bispecific antibody was 200 nM, 400 nM, 800 nM, and 1600 nM. The biosensor was dissociated in 1×Kinetics solution. Fortebio Data Analysis 8.0 software was used for data analysis and affinity constant values were calculated.

B1: 19G294 (anti-CD26-CD3 humanized bispecific antibody derived from No. 62 mouse antibody) (bispecific antibody)
chain: DIVMTQSPSSLSVTPGERVSISCRSDKSLLHSNGNTYLYWFLQKPGQSPQVLIYRMSNLASGVPDRFSGSGSGTDFTLTISRVEAEDVGVYYCFQQLEYPYTFGQGTKLEIKGGGGSGGGGSGGGGSEVQLVQSGAELVKPGASVKLSCAASGFNIKDTYIYWVRQAPGQGLEWVGRIEPMNGNTKYDPKFQGRFTMTANTSKNTAYLQLSSLRSEDTAVYYCSRGGWLLLYVMDYWGQGTLVTVSSGGGGSDVQLVQSGAEVKKPGASVKVSCKASGYTFTRYTMHWVRQAPGQGLEWIGYINPSRGYTNYADSVKGRFTITTDKSTSTAYMELSSLRSEDTATYYCARYYDDHYCLDYWGQGTTVTVSSGGGGSGGGGSGGGGSDIVLTQSPATLSLSPGERATLSCRASQSVSYMNWYQQKPGKAPKRWIYDTSKVASGVPARFSGSGSGTDYSLTINSLEAEDAATYYCQQWSSNPLTFGGGTKVEIK
notes: also called 19G294 BiTE
- EC50 of antibody mediated cytotoxicity of PBMC against 786-0-LUC cells (luciferase reporter) [1]: 2.62 ng/mL
- EC50 of antibody mediated cytotoxicity of PBMC against A498-LUC cells (luciferase reporter) [1]: 3.21 ng/mL
- EC50 of antibody mediated cytotoxicity of PBMC against 786-0-LUC cells (luciferase reporter) [2]: 1.43 ng/mL
- EC50 of antibody mediated cytotoxicity of PBMC against A498-LUC cells (luciferase reporter) [2]: 4.15 ng/mL
- IC50 of antibody mediated PBMC cytotoxicity against 786-0 cells [3]: 0.26 ng/mL
- IC50 of antibody mediated PBMC cytotoxicity against HCC 827 cells [3]: 0.546 ng/mL
- IC50 of antibody mediated PBMC cytotoxicity against NCI-H226 cells [3]: 0.752 ng/mL
- IC50 of antibody mediated PBMC cytotoxicity against NCI-H2052 cells [3]: 5.05 ng/mL
- IC50 of antibody mediated PBMC cytotoxicity against OS-RC-2 cells [3]: 0.545 ng/mL
- IC50 of antibody mediated PBMC cytotoxicity against PC-3 cells [3]: 0.22 ng/mL
- Kd [4]: 914 pM
- koff [4]: 8.45e-05 s⁻¹
- kon [4]: 92400 M⁻¹ s⁻¹
- Kd (CD3 protein): 751 pM
- koff (CD3 protein): 0.000178 s⁻¹
- kon (CD3 protein): 238000 M⁻¹ s⁻¹
